Reference: patent US20210284740A1

Legend:
[1] = molecular target: peripheral lymph node addressin (PNAd) expressed on CHO cells; assay: cell-based ELISA on fixed CHO-PNAd cells, antibody titrated 1 ng/ml to 300 ug/ml, fitted curve
[2] = molecular target: peripheral lymph node addressin (PNAd) expressed on CHO cells; assay: cell-based ELISA on fixed CHO-PNAd cells, HRP-conjugated secondary antibody, TMB, OD450
[3] = molecular target: peripheral lymph node addressin (PNAd) expressed on CHO cells; assay: cell-based ELISA on fixed CHO-PNAd cells; compared with the reference MECA79

Kd [1] | EC50 (read off the curve) [2] | binding affinity higher than MECA79 (percent) [3] | Molecule
1.41 nM | 5 µg/mL | – | MECA79 monoclonal antibody
0.97 nM | 4 µg/mL | 30% | MHA112 monoclonal antibody (mAb) (antibody, mouse IgM, V domains shown) VH: QVQLKESGPGLVAPSQSLSITCTVSGFSLTSYGVDWVRQPPGKGLEWLGVIWGGGSTNYNSALMSRLSISKDNSKSQVFLKMNSLQTDDTAMYYCAKHSKGGYFDVWGTGTTVTVSS VL: EIVLTQSPAITAASLGQKVTITCSASSSVSYMHWYQQKSGTSPKPWIYEISKLASGVPARFSGSGSGTSYSLTISSMEAEDAAIYYCQQWNYPLITFGAGTKLELK
